Reference: patent US20220195067A1 (LAMKAP BIO BETA, published 2022)
Numbering of substitutions follows the chain as printed.

T1: human CEACAM5 on CEACAM5-expressing cancer cell lines (human, UniProt P06731 35-685)
T1 construct: whole, on cells; also called CEACAM5 on SK-CO-1, MKN-45, HPAF-II, SNU-C1, Ls174T, LoVo cells
T1 sequence (looked up): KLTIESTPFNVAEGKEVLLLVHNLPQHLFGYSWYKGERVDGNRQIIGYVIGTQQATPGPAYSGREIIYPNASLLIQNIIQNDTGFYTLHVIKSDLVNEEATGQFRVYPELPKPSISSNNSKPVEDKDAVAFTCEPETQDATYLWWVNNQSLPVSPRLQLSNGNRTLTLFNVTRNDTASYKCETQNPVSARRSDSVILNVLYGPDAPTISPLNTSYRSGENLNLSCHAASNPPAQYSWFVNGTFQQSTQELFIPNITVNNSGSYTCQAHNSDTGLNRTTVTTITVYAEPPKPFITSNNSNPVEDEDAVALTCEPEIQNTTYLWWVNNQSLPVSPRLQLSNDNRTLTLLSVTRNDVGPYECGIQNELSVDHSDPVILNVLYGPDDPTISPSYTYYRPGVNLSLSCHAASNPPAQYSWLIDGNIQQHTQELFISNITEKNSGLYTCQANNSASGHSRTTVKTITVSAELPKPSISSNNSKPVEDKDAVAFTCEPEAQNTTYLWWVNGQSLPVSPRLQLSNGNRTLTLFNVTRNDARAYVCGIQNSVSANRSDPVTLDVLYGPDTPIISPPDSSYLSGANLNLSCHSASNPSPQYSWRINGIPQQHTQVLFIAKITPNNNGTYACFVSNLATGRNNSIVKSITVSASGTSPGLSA

B1: K2AC82 (bispecific antibody, human IgG1, kappa, lambda)
heavy: not shown
light 1: QSVLTQPPSVSAAPGQKVTISCSGSSSNIGYGLVSWYQQLPGTAPKLLIYGINKRPSGIPDRFSGSKSGTSATLGITGLQTGDEADYYCGTWDFSYRVDFGGGTKLTVLGQPKAAPSVTLFPPSSEELQANKATLVCLISDFYPGAVTVAWKADSSPVKAGVETTTPSKQSNNKYAASSYLSLTPEQWKSHRSYSCQVTHEGSTVEKTVAPTECS
light 2: not shown
notes: Kappa-lambda body; also called CD47xCEACAM5 bispecific antibody K2AC82; AC82 (CEACAM5 arm)
B2: K2AC91 (bispecific antibody, human IgG1, kappa, lambda)
heavy: not shown
light 1: B1 light 1 with Y31I, G51T, I52V, K54N, W92F, R97G, V98I, D99V
light 2: not shown
notes: Kappa-lambda body; also called CD47xCEACAM5 bispecific antibody K2AC91; AC91 (CEACAM5 arm)
B3: K2AC117 (bispecific antibody, human IgG1, kappa, lambda)
heavy: not shown
light 1: B1 light 1 with Y31I, G51N, I52G, K54V
light 2: not shown
notes: Kappa-lambda body; also called CD47xCEACAM5 bispecific antibody K2AC117; AC117 (CEACAM5 arm)

Columns and labels:
[1] = target: T1, human CEACAM5 on CEACAM5-expressing …; assay: flow cytometry on LoVo cells (carry CEACAM5 and CD47), PE anti-human IgG Fc
Method: (§1) The binding of CD47×CEACAM5 bispecific antibodies was tested on CEACAM5-expressing human gastric adenocarcinoma cells (e.g. MKN-45), on CEACAM5-expressing human colorectal cancer cells (SK-CO-1, SNU-C1, Ls174T, and LoVo), and on CEACAM5-expressing pancreatic adenocarcinoma cells (HPAF-II).
(§2) Cells were harvested, counted, checked for viability and resuspended at 3×10⁶ cells/ml in FACS buffer (PBS 2% BSA, 0.1% NaN3). 100 μl of the cell suspension was distributed in V-bottom 96-well plates (3×10⁵ cells/well). The supernatant was removed by centrifugation 3 minutes at 4° C., 1300 rpm. Increasing concentrations of the antibody according to the invention were then added into the wells and incubated for 15 minutes at 4° C. Cells were washed twice with cold FACS buffer and re-incubated for further 15 minutes at 4° C. with the PE (R-phycoerythrin)-conjugated mouse anti-human IgG Fc secondary antibody (SouthernBiotech, pre-diluted 1:100 in FACS buffer). Cells were washed twice with cold FACS buffer and resuspended in 300 μl FACS buffer with 1:15000-diluted SytoxBlue (Life Technologies). Fluorescence, specifically mean fluorescence […] (MFI), was determined using a Cytoflex […] flow cytometer. Binding curves and […] and Emax values were obtained and calculated using GraphPad Prism7 software.

[2] = target: T1, human CEACAM5 on CEACAM5-expressing …; assay: flow cytometry on Ls174T cells (carry CEACAM5 and CD47), PE anti-human IgG Fc
Method: as §1, §2

[3] = target: T1, human CEACAM5 on CEACAM5-expressing …; assay: flow cytometry on MKN-45 cells (carry CEACAM5 and CD47), PE anti-human IgG Fc
Method: as §1, §2

[4] = target: T1, human CEACAM5 on CEACAM5-expressing …; assay: flow cytometry on SNU-C1 cells (carry CEACAM5 and CD47), PE anti-human IgG Fc
Method: as §1, §2

[5] = target: T1, human CEACAM5 on CEACAM5-expressing …; assay: flow cytometry on HPAF-II cells (carry CEACAM5 and CD47), PE anti-human IgG Fc
Method: as §1, §2

[6] = target: T1, human CEACAM5 on CEACAM5-expressing …; assay: flow cytometry on SK-CO-1 cells (carry CEACAM5 and CD47), PE anti-human IgG Fc
Method: as §1, §2

[7] = target: T2, human CD47 expressed at the surface of MKN-45 cells (human, UniProt Q08722 19-323); assay: CD47/SIRPα blocking assay on MKN-45 cells (carry CD47 and CEACAM5), imaging of bound SIRPα-mouseFc
T2 construct: whole, on cells; MKN-45 cells express both CD47 and CEACAM5; also called hCD47
Source text: The cell-based assay monitoring the interaction of soluble SIRPa with human CD47 expressed at the surface of MKN-45 cells as described below was used for the detection of the blocking activity. Concentration-response experiments with bispecific antibodies according to the invention allowed determination of inhibition curves (see FIG. 4) and of IC50 values (see Table 12).
MKN-45 cancer cells, expressing both CD47 and CEACAM5, were stained with CFSE violet to allow the imaging system (CX5) to detect the cells. Briefly, 3'000 stained MKN-45 cells per well were seeded in a 384 optical well plate (Costar) and incubated for 50 minutes with increased concentrations of bispecific antibodies of the invention ([…] to 333 nM, in quadruplicates). Then, a fixed concentration of SIRPα-mouseFc premixed with anti-mouse IgG-Fc AF647 coupled antibody (Jackson Immunoresearch diluted 1:2000) was added at 50 ng/mL final. After an incubation of 3 hours and 30 minutes, images of the fluorescence signals emitted by the detected bound SIRPa on the plates were acquired with the imaging system (CX5, Thermo Fisher). Fluorescence signals (mean fluorescence intensity MFI) were plotted according to the dose range tested, and IC50 was calculated by the software (Prism, GraphPad).

T2 sequence (Q08722 19-323): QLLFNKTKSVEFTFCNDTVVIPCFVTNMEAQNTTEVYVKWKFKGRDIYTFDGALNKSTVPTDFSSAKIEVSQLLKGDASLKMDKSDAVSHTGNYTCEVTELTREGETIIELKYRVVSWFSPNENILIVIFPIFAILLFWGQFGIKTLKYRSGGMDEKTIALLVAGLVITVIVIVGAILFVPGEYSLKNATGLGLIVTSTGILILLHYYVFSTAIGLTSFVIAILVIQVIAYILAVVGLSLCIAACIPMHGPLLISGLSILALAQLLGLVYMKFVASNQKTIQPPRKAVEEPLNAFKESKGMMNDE

Binder | EC50 [1] [nM] | Emax (MFI) [1] [MFI] | EC50 [2] [nM] | Emax (MFI) [2] [MFI] | EC50 [3] [nM] | Emax (MFI) [3] [MFI] | EC50 [4] [nM] | Emax (MFI) [4] [MFI] | EC50 [5] [nM] | Emax (MFI) [5] [MFI] | EC50 [6] [nM] | Emax (MFI) [6] [MFI] | IC50 [7] [nM]
B1 | 22 | 260000 | 11.3 | 77000 | 10 | 1.18e+06 | 4.4 | 280000 | 11.3 | 940000 | 17.3 | 900000 | 0.07
B2 | 16 | 380000 | 6 | 100000 | 8 | 1.64e+06 | 2.53 | 400000 |  |  | 12.7 | 1.3e+06 | 0.05
B3 | 20 | 320000 | 6.7 | 70000 | 8 | 1.35e+06 | 3.13 | 370000 | 7.3 | 1.2e+06 | 14.7 | 1.1e+06 | 0.08
